Patent US20040248211A1, “ICAM-related protein” (priority 1992, published 2004)
Residue numbers refer to the chain shown, from its start.

How the values were obtained:
Assay type in all cases: cell-based, human
[1] = system: JY cells (LFA-1) binding to ICAM-R/IgG; experiment: JY cell binding to plate-bound ICAM-R/IgG chimeras; details: chimera coated at 10 μg/ml
Description: The binding of the lymphoblastoid cell line JY, which expresses LFA-1, to wild type ICAM-R/IgG chimera was examined in the presence and absence of LFA-1 specific antibodies or antibodies specific for either domain 1 or 2 of ICAM-R. ICAM-R chimeras were diluted to 10 μg/ml in 0.1M Na-carbonate/bicarbonate buffer pH 9.6 and used to coat triplicate wells (50 μl/well) of an Immulon 4 96-well plate (Dynatech) overnight at 4° C. Wells were washed three times in PBS and blocked with 1% BSA (in PBS) for 1 hour at 37° C. JY cells were labeled with the fluorescent dye Calcein (Moleculat Probes, Eugene, Oreg.) at 8 μg/ml at 37° C. in serum free RPMI for 20 minutes. Cells were washed with RPMI and resuspended in binding buffer (0.2% HSA in RPMI. Approximately 1×10^5 cells were added to each well containing the binding buffer with or without antibody (20 μg/ml of ICR-2.1, ICR-1.1, ICR-3.1, ICR-5.1, ICR-7.1, ICR-8.1, ICR-4.2, ICR-6.2, ICR-9.2, TS1/22 or 60.3) so that the final volume was 0.35 ml. Plates were incubated at 37° C. in the dark for 45 minutes and input fluorescence was quantitated with a fluorescence reader (Millipore) in a 96-well format. Unbound cells were removed by inverting the plate in 0.1% BSA in PBS for 20 minutes. Bound cells were quantitated by measuring the remaining fluorescence and presented as percent input minus background binding to wells coated with BSA alone.

[2] = system: Neutrophil binding to ICAM-R E37/A; experiment: Neutrophil adhesion
Description: (§1) Binding of HL-60 cells, neutrophils, and COS cells expressing. CD11b to the chimeric proteins was assayed as follows. The chimeric fusion proteins were diluted to 20 μg/ml in 0.1 M Na-carbonate/bicarbonate buffer (pH 9.6) and 50 μl was used to coat each well (in triplicate) of an Immulon 4 96-well plate (Dynatech). The plates were incubated overnight at 4° C. and washed three times in PBS. Wells were blocked with 1% human serum albumin (HSA) for one hour at 37° C. and washed three times in PBS. Two hundred μl of RPMI+0.25% HSA (with/without phorbol ester at 10 ng/ml, with/without blocking mAb at 15 μg/ml) was added to each well. ICAM-R antibodies used were ICR-1.1, ICR-8.1, ICR-4.2, ICR-6.2, ICR-9.2, and ICR-19.3. […] The adherent cells were quantified by staining with crystal violet (1% solution in 10% ethanol), washing with water and eluting the dye with 66% ethanol in water and measuring the absorbance at 570 nm. In each experiment percent cells bound was calculated using the absorbency values obtained from the CD18 mAb coated well as 100%. […]
This motif in domain 1 of ICAM-1 is essential for CD11a but not CD11b binding. Consequently, the effect of the alanine substitution at ICAM-R E37 (E37/A) on CD11b binding was evaluated.

[3] = system: Neutrophil binding to ICAM-R/His; experiment: Neutrophil adhesion
Description: as §1, with “ICR-19.3. CD11a blocking antibody TS1/22 (ATCC HB202) and CD11b blocking antibodies 44AACB (ATCC HB249) and LM2/1 (ATCC HB204) were also used as well as monoclonal antibodies IC/A4.1 to CD49d (α4) and 22F12C to CD18, both of which were generated using standard hybridoma techniques.” for “ICR-19.3.”

[4] = system: neutrophil binding to ICAM-2; experiment: Neutrophil adhesion
Description: as §1, with “ICR-19.3. CD11a blocking antibody TS1/22 (ATCC HB202) and CD11b blocking antibodies 44AACB (ATCC HB249) and LM2/1 (ATCC HB204) were also used as well as monoclonal antibodies IC/A4.1 to CD49d (α4) and 22F12C to CD18, both of which were generated using standard hybridoma techniques.” for “ICR-19.3.”

B1: ICAM-R E37/A: ICAM-R/IgG chimera with alanine substitution at E37 (protein)
chain: QEFLLRVEPQNPVLSAGGSLFVNCSTDCPSSEKIALATSLSKELVASGMGWAAFNLSNVTGNSRILCSVYCNGSQITGSSNITVYGLPERVELAPLPPWQPVGQNFTLRCQVEGGSPRTSLTVVLLRWEEELSRQPAVEEPAEVTATVLASRDDHGAPFSCRTELDMQPQGLGLFVNTSAPRQLRTFVLPVTPPRLVAPRFLEVETSWPVDCTLDGLFPASEAQVYLALGDQMLNATVMNHGDTLTATATATARADQEGAREIVCNVTLGGERREARENLTVFSFLGPIVNLSEPTAHEGSTVTVSCMAGARVQVTLDGVPAAAPGQTAQLQLNATESDDGRSFFCSATLEVDGEFLHRNSSVQLRVLYGPKIDRATCPQHLKWKDKTRHVLQCQARGNPYPELRCLKEGSSREVPVGIPFFVNVTHNGTYQCQASSSRGKYTLVVVMDIEAFSSH
modifications: left off: a dimerising Fc or GST
LFA-1 mediated JY cell adhesion to variant ICAM-R/IgG chimera [1]: completely abrogated adhesion of JY cells
neutrophil binding relative to wild type ICAM-R [2]: binding was reduced relative to wild type ICAM-R

B2: ICAM-R/His: histidine-tagged ICAM-R extracellular region fusion protein (protein)
chain: B1 chain with A37E
modifications: left off: small tags and cut ends
notes: histidine-tagged ICAM-R extracellular region fusion protein
neutrophil adhesion to immobilized protein [3]: Neutrophils adhered to immobilized ICAM-R/His

B3: ICAM-2: chimeric ICAM-2/IgG fusion protein (protein)
chain: KVFEVHVRPKKLAVEPKGSLEVNCSTTCNQPEVGGLETSLDKILLDEQAQWKHYLVSNISHDTVLQCHFTCSGKQESMNSNVSVYQPPRQVILTLQPTLVAVGKSFTIECRVPTVEPLDSLTLFLFRGNETLHYETFGKAAPAPQEATATFNSTADREDGHRNFSCLAVLDLMSRGGNIFHKHSAPKMLEIYEPVSDSQ
modifications: left off: a dimerising Fc or GST
notes: chimeric ICAM-2/IgG fusion protein
neutrophil binding relative to ICAM-1 [4]: approximately 70%
